Laboratory results published in patent US20110183358A1 (published 2011).
Square brackets hold non-standard residues; d marks the D form. Ends that are not written are not given here. * marks the point of attachment. Phe(4-Cl) = N[C@@H](Cc1ccc(Cl)cc1)C(=O)O; 2Nal = N[C@@H](Cc1ccc2ccccc2c1)C(=O)O; d2Nal = N[C@H](Cc1ccc2ccccc2c1)C(=O)O; Fmoc = O=C(OCC1c2ccccc2-c2ccccc21)*; 2Thi = N[C@@H](Cc1cccs1)C(=O)O; Cha = N[C@@H](CC1CCCCC1)C(=O)O; d2Thi = N[C@H](Cc1cccs1)C(=O)O; dCha = N[C@H](CC1CCCCC1)C(=O)O

Columns and labels:
[1] = biological target: glutathione-S-transferase-BIR2 fusion protein (GST-BIR2) (human) (UniProt P98170); experiment: fluorescence polarization; 400 nM rhodamine-SMAC, GST-BIR2 0.05 to 20 µM
GST-BIR3RING (human) = GST-BIR3RING (human) (UniProt P98170); experiment: fluorescence polarization; 400 nM rhodamine-SMAC, GST-BIR3RING 0.02 to 6 µM
full length XIAP = full length XIAP (human, UniProt P98170 1-497); experiment: cell-based or functional assay
GST-XIAP [2] = biological target: T1, GST-XIAP (human, UniProt P98170 1-497); experiment: cell-based or functional assay
GST-XIAP [3] = biological target: T1, GST-XIAP; experiment: cell-based or functional assay; remark: listed apart in the source

T1 sequence (P98170 whole entry): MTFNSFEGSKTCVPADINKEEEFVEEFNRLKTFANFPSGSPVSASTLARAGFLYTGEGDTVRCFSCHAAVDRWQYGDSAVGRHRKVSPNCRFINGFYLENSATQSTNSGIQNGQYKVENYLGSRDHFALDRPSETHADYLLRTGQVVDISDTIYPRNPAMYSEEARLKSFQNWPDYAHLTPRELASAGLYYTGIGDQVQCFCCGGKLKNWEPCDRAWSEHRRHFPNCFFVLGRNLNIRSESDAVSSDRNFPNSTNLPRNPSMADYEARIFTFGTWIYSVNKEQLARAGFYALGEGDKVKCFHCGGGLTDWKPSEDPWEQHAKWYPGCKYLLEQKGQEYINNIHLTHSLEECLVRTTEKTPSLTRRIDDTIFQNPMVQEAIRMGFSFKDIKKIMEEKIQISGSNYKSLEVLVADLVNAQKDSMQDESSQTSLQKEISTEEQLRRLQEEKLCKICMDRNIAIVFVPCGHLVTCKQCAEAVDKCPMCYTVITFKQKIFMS
full length XIAP, sequence (P98170 whole entry): as above
GST-BIR3RING (human), sequence (P98170 243-497): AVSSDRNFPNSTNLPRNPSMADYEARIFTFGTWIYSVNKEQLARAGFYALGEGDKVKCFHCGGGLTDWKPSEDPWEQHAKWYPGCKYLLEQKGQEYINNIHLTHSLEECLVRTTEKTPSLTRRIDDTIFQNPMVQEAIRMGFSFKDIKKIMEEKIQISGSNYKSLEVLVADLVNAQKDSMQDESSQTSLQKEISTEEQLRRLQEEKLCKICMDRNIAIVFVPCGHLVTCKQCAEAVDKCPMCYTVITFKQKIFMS
glutathione-S-transferase-BIR2 fusion protein (GST-BIR2) (human), sequence (P98170 124-240): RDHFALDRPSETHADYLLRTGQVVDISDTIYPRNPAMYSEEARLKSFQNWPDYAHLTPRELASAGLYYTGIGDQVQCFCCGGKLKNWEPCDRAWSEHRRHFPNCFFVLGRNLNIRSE

## rhodamine labeled SMAC (rhodamine-SMAC) (peptide)
[1]
  Kd: 20 µM
GST-BIR3RING (human)
  Kd: 0.28 µM

## [2Thi][2Nal][dK](Fmoc)K(Fmoc) [TPI 792-35]
Full length XIAP
  EC50 (amount of compound necessary to restore caspase-3 activity to 50% of Vmax): 51 µM
  Relative Potency (against SMAC AVPI tetrapeptide): 2.5 fold

## H-AVPIAQK-NH2 [SMAC peptide (H-Ala-Val-Pro-Ile-Ala-Gln-Lys-NH2)]
GST-XIAP [2]
  Vmax(mix + casp3 + XIAP)/Vmax(casp3 + XIAP): 3.8 ratio

## A[dW]W[2Thi] [1332/1352-47]
GST-XIAP [3]
  ratio of Vmax for hydrolysis of Ac-DEVD-AFC in the presence and absence of the species: 2.4 ratio

## [Cha][d2Nal]W[2Thi] [1332-41]
GST-XIAP [3]
  ratio of Vmax for hydrolysis of Ac-DEVD-AFC in the presence and absence of the species: 2.4 ratio

## A[dW]W[2Thi] [1352-6]
GST-XIAP [3]
  ratio of Vmax for hydrolysis of Ac-DEVD-AFC in the presence and absence of the species: 2.4 ratio

## [2Nal][d2Thi][dF][dW] [1352-72]
GST-XIAP [3]
  ratio of Vmax for hydrolysis of Ac-DEVD-AFC in the presence and absence of the species: 2.4 ratio

## [2Thi][2Nal][Phe(4-Cl)]K(Fmoc) [TPI 792-33]
Full length XIAP
  EC50 (amount of compound necessary to restore caspase-3 activity to 50% of Vmax): 24 µM
  Relative Potency (against SMAC AVPI tetrapeptide): 5.2 fold

## AWW[2Thi] (not fully specified) [1332/1352-1]
GST-XIAP [3]
  ratio of Vmax for hydrolysis of Ac-DEVD-AFC in the presence and absence of the species: 2.4 ratio

## [2Nal][dCha]W[dW] [1352-66]
GST-XIAP [3]
  ratio of Vmax for hydrolysis of Ac-DEVD-AFC in the presence and absence of the species: 2.4 ratio
